The Kd is a measure of binding affinity in units of concentration. Broadly, the koff is the first-order rate constant of dissociation. By kon is commonly meant the second-order rate constant of association.

These results are taken from US20220081485A1 (BEIJING WISDOMAB BIOTECHNOLOGY, published 2022).

Assay [1] addresses T1, recombinant hIL4R-his (human IL-4R extracellular domain with C-terminal His tag) (human (Homo sapiens), UniProt P24394 26-232).
T1 construct: The tag was added at the C-terminus; The protein was expressed in HEK293 cells; also called huIL4R
T1 sequence: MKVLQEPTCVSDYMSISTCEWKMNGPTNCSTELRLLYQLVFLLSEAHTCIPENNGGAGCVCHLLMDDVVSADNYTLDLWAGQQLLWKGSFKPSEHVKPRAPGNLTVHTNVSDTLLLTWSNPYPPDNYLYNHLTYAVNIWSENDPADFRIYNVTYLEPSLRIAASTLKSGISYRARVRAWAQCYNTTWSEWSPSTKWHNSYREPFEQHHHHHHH
Briefly: solid phase phage display screening with hIL4R-his as antigen.

The target in assay [2] is T2, coated recombinant IL4R antigen (Example 3.2) (human (Homo sapiens), UniProt P24394 26-232).
T2 sequence: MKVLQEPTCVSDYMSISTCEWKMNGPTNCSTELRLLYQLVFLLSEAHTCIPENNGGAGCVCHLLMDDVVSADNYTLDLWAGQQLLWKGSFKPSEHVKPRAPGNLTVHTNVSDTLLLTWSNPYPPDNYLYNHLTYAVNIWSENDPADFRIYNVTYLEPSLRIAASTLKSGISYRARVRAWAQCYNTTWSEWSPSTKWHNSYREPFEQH
Briefly: competition ELISA: phage-scFv at a fixed titer on coated recombinant IL4R, against a gradient of recombinant IL4; detected with HRP-anti-M13.

In assay [3] the target is T3, human IL-4R on cells (HEK-Blue IL-4/IL-13 cells, TF-1 cells, human PBMCs) (human, UniProt P24394 26-825).
T3 sequence (looked up): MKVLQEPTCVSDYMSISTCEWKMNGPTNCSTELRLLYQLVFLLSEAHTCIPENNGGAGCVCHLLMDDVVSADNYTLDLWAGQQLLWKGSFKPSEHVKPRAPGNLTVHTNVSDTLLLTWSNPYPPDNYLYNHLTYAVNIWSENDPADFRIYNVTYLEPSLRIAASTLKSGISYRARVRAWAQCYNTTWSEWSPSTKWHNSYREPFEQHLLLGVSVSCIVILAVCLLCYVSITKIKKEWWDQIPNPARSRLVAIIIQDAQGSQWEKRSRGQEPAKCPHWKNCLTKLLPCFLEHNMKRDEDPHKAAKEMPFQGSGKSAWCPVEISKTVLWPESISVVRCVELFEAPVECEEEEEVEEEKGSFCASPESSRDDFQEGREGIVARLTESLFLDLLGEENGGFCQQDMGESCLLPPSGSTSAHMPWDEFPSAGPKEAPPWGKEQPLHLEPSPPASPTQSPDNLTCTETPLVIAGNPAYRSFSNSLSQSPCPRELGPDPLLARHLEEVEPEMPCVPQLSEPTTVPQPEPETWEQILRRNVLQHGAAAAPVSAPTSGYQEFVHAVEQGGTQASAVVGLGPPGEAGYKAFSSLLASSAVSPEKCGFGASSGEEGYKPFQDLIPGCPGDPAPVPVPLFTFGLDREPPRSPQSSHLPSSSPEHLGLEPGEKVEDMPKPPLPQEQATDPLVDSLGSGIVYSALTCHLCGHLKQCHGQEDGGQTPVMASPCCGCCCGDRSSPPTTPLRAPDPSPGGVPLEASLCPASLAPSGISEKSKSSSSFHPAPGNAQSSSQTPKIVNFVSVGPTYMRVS
Kind of assay: cell-based or functional assay.

Assay [4] has as its target T3, human IL-4R on cells (HEK-Blue …). Briefly: cell-based or functional assay. The source holds these as a separate data set.
Assay [5] has the same target. Briefly: cell-based or functional assay. The source holds these as a separate data set.
The target of assay [6] is T1, recombinant hIL4R-his (human IL-4R …). Briefly: SPR Biacore X100, antibody captured by anti-human Fc, IL4R-his as analyte, 25 C. How it is done:
(§1) The affinity of each anti-IL4R IgG4 chimeric antibody was determined using Biacore X100. Amino coupling kits, human antibody capture kits, CM5 chips, 1× HBS-EP (pH 7.4) and all reagents used in this assay were purchased from GE Healthcare. According to the instructions in the kits, an antibody against the human Fc region was coupled to the surface of the CM5 chip using an amino coupling method, and antibody proteins were diluted to appropriate concentrations to ensure that about 100 RU of the antibodies was captured by the antibody against the human Fc. IL4R-his was set to a series of concentration gradients (100 nm, 33.3 nm, 11.1 nm, 3.7 nm, 1.23 nm) and flew through the surface of the stationary phase.
(In SPR one partner is held on a chip, and binding of the other changes the refractive index at the surface.)

Assay [7] has as its target T4, mmIL4R-mFc (Macaca mulatta IL-4R extracellular domain fused to murine IgG2a Fc) (Macaca mulatta).
T4 chain: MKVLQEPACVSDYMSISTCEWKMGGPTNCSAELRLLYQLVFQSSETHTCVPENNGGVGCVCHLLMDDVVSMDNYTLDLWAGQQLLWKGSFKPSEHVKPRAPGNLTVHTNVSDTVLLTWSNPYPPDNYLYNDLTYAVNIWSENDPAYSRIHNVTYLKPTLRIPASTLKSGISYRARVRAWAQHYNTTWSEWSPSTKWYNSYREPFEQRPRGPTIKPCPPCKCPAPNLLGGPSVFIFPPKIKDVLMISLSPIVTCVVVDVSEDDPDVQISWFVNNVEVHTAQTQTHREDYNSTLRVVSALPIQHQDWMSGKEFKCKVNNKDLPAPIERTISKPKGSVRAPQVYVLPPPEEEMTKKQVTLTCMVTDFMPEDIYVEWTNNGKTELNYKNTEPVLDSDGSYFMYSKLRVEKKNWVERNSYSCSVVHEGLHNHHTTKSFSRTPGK
Kind of assay: SPR Biacore X100, antibody captured, mmIL4R-mFc as analyte. How it is done:
as §1
Similarly, anti-IL4R monoclonal antibodies were captured and mmIL4R-mFc was set to a series of concentration gradient (50 nm, 16.7 nm, 5.56 nm, […], 0.62 nm).

The target of assay [8] is T5, IL4R-mFc (human IL-4R extracellular domain fused to murine IgG2a Fc) (human (Homo sapiens)).
T5 construct: also called antigen IL4R-mFc
Briefly: blocking ELISA: antibody gradient with IL4-his at a fixed concentration on coated IL4R-mFc; bound IL4-his detected with HRP-mouse-anti-his IgG. How it is done: (§2) 96 well plates were coated with antigen IL4R-mFc (3 μg/ml, 100 μI/well) overnight at 4° C.

In assay [9] the target is T1, recombinant hIL4R-his (human IL-4R …). Briefly: SPR Biacore X100, antibody captured by anti-human Fc, IL4R-his as analyte, 25 C. As to the method:
as §1
This is another data set of the same source.

The target in assay [10] is T5, IL4R-mFc (human IL-4R extracellular …). Kind of assay: blocking ELISA: antibody gradient with IL4-his at a fixed concentration on coated IL4R-mFc; bound IL4-his detected with HRP-mouse-anti-his IgG. As to the method: as §2
This is another data set of the same source. On the technique in general: In an ELISA, binding on a coated surface is turned into a signal by an enzyme label.

In assay [11] the target is T3, human IL-4R on cells (HEK-Blue …). Briefly: cell-based or functional assay. This is another data set of the same source.
Assay [12] shares this target. Kind of assay: cell-based or functional assay. This is another data set of the same source.

Positions count from the first letter of the chain named. Like-named read-outs stand apart in the source and are kept apart here.

B1: S1E6 phage-scFv (scFv)
scFv: EVQLVESGGGLVQPGGSLRLSCAVSGFTFSSYAMSWVRQAPGKGLEWVSSITGGGGGIYYADSVKGRFTISRDNSKNTVYLQMNSLRAEDTAVYYCAKDRISITIRPRYFGLDFWGQGTTVTVSSGGGGSGGGGSGGGGSDIVMTQSPLSLPVTPGEPASISCRSSRSVLYGNGYNYLDWYLQKSGQSPQLLIYLGTNVAAGVPDRFSGSGSGTDFTLKISRVEAEDVGFYYCMQSLRTPYTFGQGTKLEIK
notes: also called clone S1E6; S1E6 single chain antibody
With B1, the binding result in [1] and in assay [2] was “binds” in each case.

B2: S1H9 phage-scFv (scFv)
scFv: EVQLVESGGGLVQPGGSLRLSCAASGFTFSNYSMRWVRQAPGKGLEWVSFISASGSTKYYADSVKGRFTISRDNSKNTLYLQMNSLRAEDTAVYYCARKPTAPRSSALDYWGQGTLVTVSSGGGGSGGGGSGGGGSDIQMTQSPSSLSASVGDRVTITCRASQGVNNYLNWYQQKPGKAPKLLIYGASSRASGVPSRFSGSGSGTDFTLTISSLQPEDFATYYCQQRLSVPLTFGQGTKVEIK
notes: also called clone S1H9
For the molecule B2, the binding result in assay [1] and in [2] was “binds” in each case.

B3: S2C2 phage-scFv (scFv)
scFv: QVQLQQSGPGLVKPSQTLSLTCAISGDSVSSNNDAWNWIRQSPSRGLEWLGRTYYRSKWYNDYAVSLKGRITINPDTSKNQFSLHLNSVTPEDTAVYYCAKRDSSVGVGAMDVWSQGTTVTVSSGGGGSGGGGSGGGGSVIWMTQSPSSLSASVGDRVTITCRSSQYIGKYLNWYQYKKGQVPKLLIYAASSLRSGVPSRFSGRGSATEFTLTISNLQREDFATYYCQKYNAVPLTFGQGTKLEIK
notes: also called clone S2C2
B3: the binding result in assay [1] and in [2] was “binds” throughout.

B4: L28F8-IgG4 (antibody, V domains shown)
VH: EVQLVESGGGLVQPGGSLRLSCAVSGFTFSSYAMSWVRQAPGKGLEWVSSITGGGGGIYYADSVKGRFTISRDNSKNTVYLQMNSLRAEDTAVYYCAKDRISITIRPRYFGLDFWGQGTTVTVSS
VL: DIVMTQSPLSLPVTPGEPASISCRSSQNVVYGNGYNYLDWYLQKSGQSPQLLIYLGTNVAAGVPDRFSGSGSGTDFTLKISRVEAEDVGFYYCMQSLQAPYTFGQGTKLEIKR
notes: also called S1E6 light chain mutant L28F8
On to B4, for which, in [3], the “IC50 values in inhibition of IL-13 (SEAP, HEK-Blue IL-4/IL-13 cells)” value was 12.1 pM. In addition, the “IC50 values in inhibition of IL-4 (IL-4 induced proliferation of TF-1 cells, CellTiter-Glo)” value in assay [4] was determined as 124 pM. For the same molecule, the “IC50 values in inhibition of IL-4 (SEAP, HEK-Blue IL-4/IL-13 cells)” value in [5] amounted to 55 pM. Also, in [6], the Kd was 420 pM, the koff came to 0.000144 s⁻¹ and the kon was determined as 342000 M⁻¹ s⁻¹. In addition, in assay [7], the affinity, expressed as Kd, was 6930 pM; the koff was determined as 0.00519 s⁻¹; the association rate constant (kon) is 748000 M⁻¹ s⁻¹. The “IC50 (read off the curve)” value in [8] was around 10000 pM.

B5: L10B2-IgG4 (antibody, V domains shown)
VH: B4 VH
VL: DIVMTQSPLSLPVTPGEPASISCRSSHNLLYSNGYNYLDWYLQKPGQSPQLLIYLGSNRAYGVPDRFSGSGSGTDFTLKISRVEAEDVGVYHCMQALQSPYTFGQGTKVDIKR
notes: also called S1E6 light chain mutant L10B2
B5: in assay [9], the Kd stood at 443 pM, the koff worked out at 0.000152 s⁻¹ and the on-rate constant (kon) was 343000 M⁻¹ s⁻¹. In addition, in assay [10], the “IC50 (read off the curve)” value is around 7000 pM. Besides, the “IC50 values in inhibition of IL-13 (SEAP, HEK-Blue IL-4/IL-13 cells)” value in assay [11] was 13.1 pM. Also, the “IC50 values in inhibition of IL-4 (SEAP, HEK-Blue IL-4/IL-13 cells)” value in assay [12] was 207 pM.

B6: L28G5-IgG4 (antibody, V domains shown)
VH: B4 VH
VL: B4 VL with Q27R, V30I, T57N
notes: also called S1E6 light chain mutant L28G5
In the case of B6, the “IC50 values in inhibition of IL-13 (SEAP, HEK-Blue IL-4/IL-13 cells)” value in assay [3] was found to be 11.5 pM. In addition, the “IC50 values in inhibition of IL-4 (IL-4 induced proliferation of TF-1 cells, CellTiter-Glo)” value in assay [4] came to 118 pM. The “IC50 values in inhibition of IL-4 (SEAP, HEK-Blue IL-4/IL-13 cells)” value in [5] was determined as 48.4 pM. Moreover, in assay [6], the Kd was found to be 464 pM, the koff was found to be 0.000134 s⁻¹ and the kon worked out at 289000 M⁻¹ s⁻¹. In [7], this molecule returned an equilibrium dissociation constant (Kd) of 10400 pM, an off-rate constant (koff) of 0.00709 s⁻¹ and a kon of 684000 M⁻¹ s⁻¹. For the same molecule, in assay [8], the “IC50 (read off the curve)” value was around 8000 pM.

B7: S1E6-IgG4 (antibody, V domains shown)
VH: B4 VH
VL: B4 VL with Q27R, N28S, V30L, Q98R, A99T
notes: also called monoclonal antibody S1E6
With B7, the dissociation constant Kd in assay [9] came to 2950 pM; in assay [6], 2840 pM; in [7], 9300 pM. Also, the koff in [9] stood at 0.000923 s⁻¹; in assay [6] it was 0.000709 s⁻¹; in assay [7], 0.0049 s⁻¹. The on-rate constant (kon) in assay [9] was 312000 M⁻¹ s⁻¹; in assay [6], 249000 M⁻¹ s⁻¹; in assay [7], 527000 M⁻¹ s⁻¹. Also, the “IC50 (read off the curve)” value in assay [10] and in assay [8] was around 20000 pM each time.
